# Patent US20220306688A1 (EMORY UNIVERSITY, published 2022)
# B1: RasKi: 8-mer 603-610 (peptide)
# peptide: MDYKDDEG
# notes: It was co-expressed or transduced by lentivirus in some cell assays; also called 8-mer WT; 8-mer peptide
# Molecular target: T1, KRAS-G12V (Homo sapiens, UniProt P01116 1-189, limits assumed)
# T1 construct: also called G12V mutant of KRAS
# Assay: disruption of the JAK1/KRAS-G12V interaction; the sentence names TR-FRET (FIG. 2B) and GST pull-down (FIG. 2C) and does not say which gave the value; competitor JAK1
binder,measurement,value
B1,IC50,870 nM
